Measured values reported in patent US20200199196A1 (WASHINGTON UNIVERSITY, published 2020).
Positions count from the first letter of the chain named. Names may count otherwise.

Experiments:
[1] = biological target: T1, RANK on mouse bone marrow macrophages (BMMs) (mouse, UniProt O35305 31-625); assay: cell-based or functional assay
T1 sequence (looked up): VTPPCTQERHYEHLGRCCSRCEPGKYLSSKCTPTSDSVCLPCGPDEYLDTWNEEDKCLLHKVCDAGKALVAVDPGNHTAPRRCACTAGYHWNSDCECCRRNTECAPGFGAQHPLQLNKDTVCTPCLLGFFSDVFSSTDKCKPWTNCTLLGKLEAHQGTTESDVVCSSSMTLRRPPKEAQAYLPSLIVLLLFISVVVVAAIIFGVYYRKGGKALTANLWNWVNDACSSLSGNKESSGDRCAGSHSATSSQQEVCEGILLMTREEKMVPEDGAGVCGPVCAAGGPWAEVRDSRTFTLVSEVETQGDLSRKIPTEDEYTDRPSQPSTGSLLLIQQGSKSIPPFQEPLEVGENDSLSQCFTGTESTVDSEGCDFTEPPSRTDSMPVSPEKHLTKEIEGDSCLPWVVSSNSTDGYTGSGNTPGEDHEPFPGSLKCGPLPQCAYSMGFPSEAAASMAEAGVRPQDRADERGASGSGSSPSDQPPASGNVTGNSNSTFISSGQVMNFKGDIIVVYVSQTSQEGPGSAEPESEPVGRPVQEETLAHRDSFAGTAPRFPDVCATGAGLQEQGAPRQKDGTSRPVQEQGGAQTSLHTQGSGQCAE

[2] = biological target: T2, monomeric RANK (monomeric fragment of RANK) (UniProt O35305 31-214, limits assumed); assay: yeast surface display, flow cytometry titration (FIG. 13)
T2 construct: The monomeric RANK of the SPR and the RANK-6xHis of the yeast display are treated here as one molecule; also called RANK-6xHis; RANK-6His
T2 sequence (looked up): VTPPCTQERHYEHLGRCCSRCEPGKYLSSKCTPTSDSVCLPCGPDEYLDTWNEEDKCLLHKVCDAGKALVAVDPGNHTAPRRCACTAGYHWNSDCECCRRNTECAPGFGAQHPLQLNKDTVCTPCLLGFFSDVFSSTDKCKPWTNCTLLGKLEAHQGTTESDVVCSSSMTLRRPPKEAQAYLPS

[3] = biological target: T3, monomeric OPG (monomeric fragment of OPG) (UniProt O08712 22-197, limits assumed); assay: yeast surface display, flow cytometry titration (FIG. 13A)
T3 construct: also called OPG-6xHis; unlabeled OPG
T3 sequence (looked up): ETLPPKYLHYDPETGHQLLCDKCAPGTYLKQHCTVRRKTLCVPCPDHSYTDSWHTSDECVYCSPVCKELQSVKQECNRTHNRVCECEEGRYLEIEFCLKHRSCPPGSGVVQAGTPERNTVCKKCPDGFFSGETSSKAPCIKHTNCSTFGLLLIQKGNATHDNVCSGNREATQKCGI

[4] = biological target: T4, monomeric RANK (monomeric fragment of RANK) (UniProt O35305 31-214); assay: yeast surface display titration
T4 chain: T2 sequence (looked up)

[5] = biological target: T5, monomeric OPG (monomeric fragment of OPG) (UniProt O08712 22-197); assay: yeast surface display titration
T5 chain: T3 sequence (looked up)

[6] = biological target: T4, monomeric RANK (monomeric fragment of …); assay: SPR
[7] = biological target: T5, monomeric OPG (monomeric fragment of …); assay: SPR
[8] = biological target: T2, monomeric RANK (monomeric fragment of …); assay: SPR, htRANKL coupled to the chip, monomeric RANK as analyte (FIG. 3C)
[9] = biological target: T4, monomeric RANK (monomeric fragment of …); assay: SPR
[10] = biological target: T5, monomeric OPG (monomeric fragment of …); assay: SPR
[11] = biological target: T3, monomeric OPG (monomeric fragment of …); assay: SPR (FIG. 11)
[12] = biological target: T2, monomeric RANK (monomeric fragment of …); assay: SPR, htRANKL variant coupled to the chip, monomeric RANK as analyte (FIG. 3C)
[13] = biological target: T3, monomeric OPG (monomeric fragment of …); assay: yeast surface display, flow cytometry titration (FIG. 3B)

B1: single-block, RANK^high scRANKL (ligand)
chain: QPFAHLTINAASIPSGSHKVTLSSWYHDRGWAKISNMTLSNGKLRVNQDGFYYLYANISFRGGSHHETSGSVPTDYLHLMVYVVKTSEKIPSSHNLMKGGSTKNWSGNSEFHFYSINVGGFFKLRAGEEISIQVSNPSLLDPDQDATYFGAFKVQDIDGGSGGGSGGGSGQPFAHLTINAASIPSGSHKVTLSSWYHDRGWAEISNMTLSNGKLRVNQDGFYYLYANISFRHHETSGSVPTDYLHLMVYVVKTSEKIPSSHNLMKGGSTKNWSGNSEYYFYSINVGGFFKLRAGEEISIQVSNPSLLDPDQDATYFGAFKVQDIDGGSGGGSGGGSGQPFAHLTINAASIPSGSHKVTLSSWYHDRGWAEISNMTLSNGKLRVNQDGFYYLYANISFRHHETSGSVPTDYLHLMVYVVKTSEKIPSSHNLMKGGSTKNWSGNSEYYFYSINVGGFFKLRAGEEISIQVSNPSLLDPDQDATYFGAFKVQDIDSSGRENLYFQ
In the case of B1, the “IC50 of inhibition of signaling / osteoclast formation stimulated by wild-type htRANKL (TRAP activity, FIG. 4D)” value [1] is reported as 0.2 nM.

B2: CDins/Q236H htRANKL (CDins combined with the Q236H mutation) (ligand)
chain: QPFAHLTINAASIPSGSHKVTLSSWYHDRGWAKISNMTLSNGKLRVNQDGFYYLYANISFRGGSHHETSGSVPTDYLHLMVYVVKTSEKIPSSHNLMKGGSTKNWSGNSEFHFYSINVGGFFKLRAGEEISIQVSNPSLLDPDQDATYFGAFKVQDID
notes: also called variant RANKL that combined CDins with the Q236H mutation
B2: no binding [2]; no binding [3].

B3: K/Q (protein)
chain: MRRASRDYGKYLRSSEEMGSGPGVPHEGPLHPAPSAPAPAPPPAASRSMFLALLGLGLGQVVCSIALFLYFRAQMDPNRISEDSTHCFYRILRLHENADLQDSTLESEDTLPDSCRRMKQAFQGAVQKELQHIVGPQRFSGAPAMMEGSWLDVAQRGKPEAQPFAHLTINAASIPSGSHKVTLSSWYHDRGWAEISNMTLSNGKLRVNQDGFYYLYANICFRHHETSGSVPTDYLHLMVYVVKTSIKIPSSHNLMKGGSTKNWSGNSEFHFYSINVGGFFKLRAGEEISIQVSNPSLLDPDQDATYFGAFKVQDID
B3 showed a Kd [4] of roughly 69.7 nM.

B4: K194E (protein)
chain: B3 chain with H236Q
In the case of B4, the Kd [5] is reported as roughly 71.7 nM.

B5: Q236H (protein)
chain: B3 chain with E194K
Binder B5 has a Kd [4] of roughly 346 nM.

B6: F269Y (protein)
chain: B3 chain with E194K, H236Q, F269Y
For B6, the Kd [5] was roughly 33.3 nM.

B7: H270Y (protein)
chain: B3 chain with E194K, H236Q, H270Y
B7 gave a Kd [5] of roughly 276 nM and a Kd [4] of roughly 465 nM.

B8: WT-SM htRANKL (homotrimeric mouse RANKL with the solubility mutations C220S/I246E) (ligand)
chain: QPFAHLTINAASIPSGSHKVTLSSWYHDRGWAKISNMTLSNGKLRVNQDGFYYLYANISFRHHETSGSVPTDYLQLMVYVVKTSEKIPSSHNLMKGGSTKNWSGNSEFHFYSINVGGFFKLRAGEEISIQVSNPSLLDPDQDATYFGAFKVQDID
notes: The format differs by assay; also called WT-SM RANKL; WT htRANKL
B8 was tested, and the Kd [6] was 1400 nM, the Kd [7] was 30.5 nM and the “t1/2 (dissociation time)” value [8] was 0.05 min. For the same binder, the Kd [9] was 1400 nM, the Kd [10] was 30.5 nM and the “fold decrease in binding against WT htRANKL without the solubility mutations” value [11] was roughly 10 fold. The Kd [5] was roughly 32.8 nM.

B9: wild-type homotrimeric RANKL without the solubility mutations (WT htRANKL as compared with WT-SM htRANKL in FIG. 5 and FIG. 11) (ligand)
chain: B8 chain with S59C, E85I
In the case of B9, the Kd [6] is reported as 1230 nM and the Kd [7] is reported as 4.75 nM.

B10: KQF htRANKL (K194E, Q236H, F269Y) (ligand)
chain: B8 chain with K33E, Q75H, F108Y
Work on B10 yielded a Kd [4] of roughly 23.6 nM.

B11: KQFH htRANKL (K194E, Q236H, F269Y, H270Y) (ligand)
chain: B8 chain with K33E, Q75H, F108Y, H109Y
notes: also called RANK^high variant
In the case of B11, the Kd [9] is reported as 3.37 nM, the “fold greater affinity than wild-type htRANKL” value [12] is reported as roughly 500 fold and the “fold longer dissociation time than WT htRANKL” value [12] is reported as 200 fold. For the same binder, the “t1/2 (dissociation time)” value [12] was 11.2 min, the Kd [4] was roughly 1.4 nM and the binding result [13] was “no binding”.

B12: double-block, RANK^high scRANKL (ligand)
chain: QPFAHLTINAASIPSGSHKVTLSSWYHDRGWAKISNMTLSNGKLRVNQDGFYYLYANISFRGGSHHETSGSVPTDYLHLMVYVVKTSEKIPSSHNLMKGGSTKNWSGNSEFHFYSINVGGFFKLRAGEEISIQVSNPSLLDPDQDATYFGAFKVQDIDGGSGGGSGGGSGQPFAHLTINAASIPSGSHKVTLSSWYHDRGWAKISNMTLSNGKLRVNQDGFYYLYANISFRGGSHHETSGSVPTDYLHLMVYVVKTSEKIPSSHNLMKGGSTKNWSGNSEFHFYSINVGGFFKLRAGEEISIQVSNPSLLDPDQDATYFGAFKVQDIDGGSGGGSGGGSGQPFAHLTINAASIPSGSHKVTLSSWYHDRGWAEISNMTLSNGKLRVNQDGFYYLYANISFRHHETSGSVPTDYLHLMVYVVKTSEKIPSSHNLMKGGSTKNWSGNSEYYFYSINVGGFFKLRAGEEISIQVSNPSLLDPDQDATYFGAFKVQDIDSSGRENLYFQ
For B12, the “IC50 of inhibition of signaling / osteoclast formation stimulated by wild-type htRANKL (TRAP activity, FIG. 4D)” value [1] was roughly 10 nM.
